Drawing on article PMC3212032, this text covers stoichiometry N and percent converted to tetramers for 3 substances.

Several values for one entry are separate records, joined by “and”; a condition that tells them apart may be missing. Equal values may be shown once. Read-outs that look alike come from different tables or passages of the source.

Assay [1] concerns the target wt HIV-1 integrase (pNY strain) (human immunodeficiency virus type-1 (pNY strain)). Nature of the assay: cross-linking.
For assay [2] the target is unchanged. Nature of the assay: cross-linking. This is another data set of the same source.
The target is the same in assay [3]. Briefly: SEC. A general note: SEC sorts molecules by how far they enter the pores of the column.
The target in assay [4] is HIV-1 integrase F185K (pNY strain) (human immunodeficiency virus type-1 (pNY strain)). Nature of the assay: SEC.
Assay [5] has the same target. Nature of the assay: SEC. This is another data set of the same source.
Assay [6] concerns the target wt Rous sarcoma virus integrase (286 residues) (Rous sarcoma virus). Nature of the assay: SEC.
Assay [7] has the same target. Nature of the assay: SEC. This is another data set of the same source.

What is called stoichiometry N is the number of molecules, sites or subunits per partner or assembly.

For the substance “wt HIV-1 integrase (pNY strain) (enzyme)”, the stoichiometry N in assay [1] is 2; in assay [2], 2 and 3 and 4; in assay [3], 4.
In turn, “HIV-1 integrase F185K (pNY strain) (enzyme)” returned a stoichiometry N in assay [4] of 2. In assay [5], the percent converted to tetramers worked out at 65%; the stoichiometry N was 2 and 4.
As to “wt Rous sarcoma virus integrase (286 residues) (enzyme)”, the stoichiometry N in assay [6] was 2 and 4; in assay [7], 2 and 4.
